In IntAct's records for PubMed 20308429:

Target: vinc_mouse Vcl (UniProt Q64727)
Sequence (Q64727 whole entry): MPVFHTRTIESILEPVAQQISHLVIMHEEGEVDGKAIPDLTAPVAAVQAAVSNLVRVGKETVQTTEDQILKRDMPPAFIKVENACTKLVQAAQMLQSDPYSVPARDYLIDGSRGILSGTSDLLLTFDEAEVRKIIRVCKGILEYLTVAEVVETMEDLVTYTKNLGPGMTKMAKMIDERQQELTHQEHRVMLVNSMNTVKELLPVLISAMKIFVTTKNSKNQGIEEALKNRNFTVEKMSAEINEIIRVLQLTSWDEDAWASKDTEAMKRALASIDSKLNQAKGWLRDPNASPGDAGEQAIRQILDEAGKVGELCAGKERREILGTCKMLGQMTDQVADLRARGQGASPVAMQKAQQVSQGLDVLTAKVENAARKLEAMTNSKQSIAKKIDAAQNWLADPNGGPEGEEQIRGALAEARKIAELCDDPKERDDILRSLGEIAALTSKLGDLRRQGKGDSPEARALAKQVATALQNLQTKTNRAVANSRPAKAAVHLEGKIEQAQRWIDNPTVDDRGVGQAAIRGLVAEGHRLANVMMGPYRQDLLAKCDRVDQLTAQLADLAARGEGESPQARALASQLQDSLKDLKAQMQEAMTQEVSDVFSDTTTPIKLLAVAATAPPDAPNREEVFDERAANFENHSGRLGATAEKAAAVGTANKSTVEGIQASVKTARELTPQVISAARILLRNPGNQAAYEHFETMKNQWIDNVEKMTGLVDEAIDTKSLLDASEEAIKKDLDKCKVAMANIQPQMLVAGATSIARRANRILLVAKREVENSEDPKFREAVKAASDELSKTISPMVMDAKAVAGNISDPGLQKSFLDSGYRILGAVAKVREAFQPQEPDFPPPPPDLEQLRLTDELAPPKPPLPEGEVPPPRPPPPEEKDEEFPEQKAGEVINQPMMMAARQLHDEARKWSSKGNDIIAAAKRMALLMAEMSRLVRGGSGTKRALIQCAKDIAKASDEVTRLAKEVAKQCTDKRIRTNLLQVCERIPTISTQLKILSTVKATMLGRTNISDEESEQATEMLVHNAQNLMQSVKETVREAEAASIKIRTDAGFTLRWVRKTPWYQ

Sequence of Paxillin (Gallus gallus (Chicken)), P49024 Y31E;Y118E (P49024 whole entry Y31E/Y118E): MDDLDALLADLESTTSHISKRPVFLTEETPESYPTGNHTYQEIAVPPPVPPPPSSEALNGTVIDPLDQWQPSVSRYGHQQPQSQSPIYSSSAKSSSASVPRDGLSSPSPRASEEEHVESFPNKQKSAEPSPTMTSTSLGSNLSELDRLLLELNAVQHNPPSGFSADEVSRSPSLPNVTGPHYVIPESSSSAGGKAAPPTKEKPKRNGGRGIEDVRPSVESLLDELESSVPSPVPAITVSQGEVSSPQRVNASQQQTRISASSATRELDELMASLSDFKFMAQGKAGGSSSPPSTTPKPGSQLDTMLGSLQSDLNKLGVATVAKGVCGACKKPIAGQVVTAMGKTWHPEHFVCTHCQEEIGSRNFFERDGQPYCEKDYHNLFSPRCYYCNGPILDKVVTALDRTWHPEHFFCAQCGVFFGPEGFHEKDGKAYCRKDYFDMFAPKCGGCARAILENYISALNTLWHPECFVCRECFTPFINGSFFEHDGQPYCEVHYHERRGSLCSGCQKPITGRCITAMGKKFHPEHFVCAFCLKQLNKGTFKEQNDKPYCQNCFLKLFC
Sequence of Paxillin (Gallus gallus (Chicken)), P49024 Y31F;Y118F (P49024 whole entry Y31F/Y118F): as the sequence (P49024 whole entry Y31E/Y118E) above, with E31F, E118F counted along it

effect of a mutation on the interaction | Substance
increasing interaction | Paxillin (Gallus gallus (Chicken)), P49024 Y31E;Y118E
decreasing interaction | Paxillin (Gallus gallus (Chicken)), P49024 Y31F;Y118F
